Measurements reported in the supplement of paper PMC7125110.
± gives the standard error. For some of these results: This sample holds only a part of the variants without activity.

B1: glmS ribozyme (parent)
chain: AUAAAAGCGCCAGAACUACAGAAAUGUAGUUGACGAGGAGGAGGUUUAUCGAAUUUUCGGCGGAUGCCUCCAAA

How the values were obtained:
Details in all cases: with glucosamine-6-phosphate
[1] = variants of: B1; experiment: kcat; higher = faster cleavage; RNA array
Procedure, shortened: (§1)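 On sequenced MiSeq chips, barcoded ribozyme variants were made in situ by E. coli RNA polymerase and followed at 37 °C through a hybridised Cy3 probe. Glucosamine-6-phosphate was flowed in at 40 μM to 10 mM in HEPES/KCl/Mg(OAc)2 buffer. Exponential fits to normalised per-tile medians gave kobs, and weighted Michaelis–Menten fits gave kcat and KM.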

[2] = variants of: B1; experiment: KM; higher = weaker cofactor use; RNA array
Procedure, shortened: as §1

[3] = variants of: B1; experiment: self-cleavage kobs at 2500 uM GlcN6P; higher = faster cleavage; RNA array
Procedure, shortened: as §1

[4] = variants of: B1; experiment: self-cleavage kobs at 10000 uM GlcN6P; higher = faster cleavage; RNA array
Procedure, shortened: as §1

[5] = variants of: B1; experiment: self-cleavage kobs at 160 uM GlcN6P; higher = faster cleavage; RNA array
Procedure, shortened: as §1

[6] = variants of: B1; experiment: self-cleavage kobs at 640 uM GlcN6P; higher = faster cleavage; RNA array
Procedure, shortened: as §1

[7] = variants of: B1; experiment: self-cleavage kobs at 40 uM GlcN6P; higher = faster cleavage; RNA array
Procedure, shortened: as §1

Variant | kcat [1] | KM [2] | self-cleavage kobs at 2500 uM GlcN6P [3] | self-cleavage kobs at 10000 uM GlcN6P [4] | self-cleavage kobs at 160 uM GlcN6P [5] | self-cleavage kobs at 640 uM GlcN6P [6] | self-cleavage kobs at 40 uM GlcN6P [7]
A39U A48C | 0.000221 ± 2.1e-05 s⁻¹ | 836 ± 370 µM | 0.000181 ± 1.8e-05 s⁻¹ | 0.000196 ± 1.6e-05 s⁻¹ | – | – | –
G37A G41A | 0.000353 ± 0.00012 s⁻¹ | – | 0.00016 ± 2.5e-05 s⁻¹ | 0.000229 ± 4.8e-05 s⁻¹ | 3.21e-05 ± 1.4e-05 s⁻¹ | 3.79e-05 ± 9.7e-06 s⁻¹ | –
G37A G41C | 2.41e-05 ± 9.5e-06 s⁻¹ | – | 3.87e-05 ± 1.5e-05 s⁻¹ | – | – | – | –
G38U A48C A52C C71A | < 1e-05 s⁻¹ | – | – | < 1e-05 s⁻¹ | – | – | < 1e-05 s⁻¹
A39C C58G | 1.1e-05 ± 2.2e-06 s⁻¹ | – | – | – | – | – | –
A39U | 0.0425 ± 0.0086 s⁻¹ | 3040 ± 720 µM | 0.019 ± 0.00075 s⁻¹ | 0.0347 ± 0.0012 s⁻¹ | 0.00176 ± 7.4e-05 s⁻¹ | 0.00683 ± 0.00016 s⁻¹ | 0.000604 ± 1e-05 s⁻¹
A39C | 0.00949 ± 0.0017 s⁻¹ | 2180 ± 510 µM | 0.00591 ± 0.00018 s⁻¹ | 0.00752 ± 0.00019 s⁻¹ | 0.000491 ± 1.8e-05 s⁻¹ | 0.00208 ± 7.2e-05 s⁻¹ | 0.000188 ± 3.3e-06 s⁻¹
A39G | 0.0923 ± 0.019 s⁻¹ | 2540 ± 580 µM | 0.0472 ± 0.0047 s⁻¹ | 0.075 ± 0.0037 s⁻¹ | 0.00433 ± 0.00024 s⁻¹ | 0.0174 ± 0.0013 s⁻¹ | 0.00154 ± 3.7e-05 s⁻¹
G40C C71U | 0.00477 ± 0.0015 s⁻¹ | 1730 ± 780 µM | 0.00328 ± 0.00041 s⁻¹ | 0.00384 ± 0.00053 s⁻¹ | 0.000335 ± 4.3e-05 s⁻¹ | 0.00124 ± 0.00014 s⁻¹ | 0.000198 ± 2.6e-05 s⁻¹
G38U G51A | < 1e-05 s⁻¹ | – | < 1e-05 s⁻¹ | – | – | – | –
G38U C70U | 1.27e-05 ± 2.6e-06 s⁻¹ | – | – | – | – | – | –
G40A G66A | 0.00833 ± 0.0037 s⁻¹ | – | – | 0.00641 ± 0.00098 s⁻¹ | 0.000201 ± 8.8e-05 s⁻¹ | 0.00165 ± 0.00041 s⁻¹ | 0.000144 ± 2e-05 s⁻¹
A39U C71G | 0.00162 ± 0.00048 s⁻¹ | 3300 ± 1600 µM | 0.00066 ± 9.6e-05 s⁻¹ | 0.00126 ± 0.00011 s⁻¹ | 0.000107 ± 2e-05 s⁻¹ | 0.00022 ± 2.8e-05 s⁻¹ | 4.48e-05 ± 8.3e-06 s⁻¹
G38C C58G C70U | < 1e-05 s⁻¹ | – | – | – | – | – | –
A39C A64G | 0.00631 ± 0.0019 s⁻¹ | 1870 ± 760 µM | 0.00323 ± 0.00045 s⁻¹ | 0.00604 ± 0.00065 s⁻¹ | 0.000342 ± 6.2e-05 s⁻¹ | 0.0014 ± 0.00018 s⁻¹ | 0.000169 ± 1.3e-05 s⁻¹
A39C U47A | 0.00575 ± 0.0015 s⁻¹ | 4090 ± 1400 µM | 0.0021 ± 0.00033 s⁻¹ | 0.00409 ± 0.00043 s⁻¹ | 0.000179 ± 2.3e-05 s⁻¹ | 0.000865 ± 0.0001 s⁻¹ | 8.72e-05 ± 1.3e-05 s⁻¹
